The source of these data is the supplement of paper PMC9170038.

The data set has as its system MS2 coat protein. Description: apparent KD of MS2 coat protein; designed switch direction (-1 OFF switch, 1 ON switch): 1; higher = weaker reporter binding. The procedure, abridged: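 Designed RNA switches with common flanks were transcribed on Illumina chips by stalled E. coli RNA polymerase and titrated with SNAP-549-labelled MS2 coat protein, from 0.7 or 1.5 nM doubling to 3 µM, in Tris-HCl pH 7.5 buffer with KCl, MgCl2, BSA, DTT, tRNA and Tween-20. Steps lasted 0.8–1.5 h (lowest) to 10–20 min (highest). Titrations ran without input, with 200 uM small-molecule ligand, or with an oligonucleotide input. Normalised cluster fluorescence was curve-fitted, and apparent KD is the per-design median over clusters.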

Setting [1] is: input ligand: microRNA oligo, concentration not stated.
Where [2] appears, read: Eterna round: R95, input ligand: FMN 200 uM.
The mark [3] stands for this setting: Eterna round: R95, input ligand: microRNA oligo, concentration not stated.
Setting [4] is: Eterna round: R95, input ligand: none.

Consider “UGGCUCAGACGAGGAUAUAUGCGAUCACAUGAGGAUCACCCAUGUCUCGAGCUUCGGCUCGAGGCAUAGAAGGUGUCUGAGCCA [SSNG2/4-C2] (Eterna round: R96, puzzle: Same State NG 2)”, for which the “apparent KD of MS2 coat protein” value reads like this: (input ligand: FMN 200 uM) 40.9 nM; under setting [1], 83.1 nM; (input ligand: none) 145 nM.
In the case of “UUAAUUUACUGAGGAUAUCGUGUCGACUGAGGUGACAUGAGGAUCACCCAUGUGAGAAGAGGUAUCGAGAAGGCAGUAUUCAUA [JR_SSNG2_Sub021] (Eterna round: R96, puzzle: Same State NG 2)”, the “apparent KD of MS2 coat protein” value (input ligand: FMN 200 uM) stood at 317 nM, the “apparent KD of MS2 coat protein” value under setting [1] was determined as 545 nM and the “apparent KD of MS2 coat protein” value (input ligand: none) was 1120 nM.
On the same counts, the results for “CCGAUUUAUGGAGGAUAUGGAGCCUUAUUGGCUCCAGAAGGCUAAUAACAUGAGGAUCACCCAUGUCGGCGGUCUAAUGACCGA [Eli NG1ss - 52] (Eterna round: R96, puzzle: Same State NG 1)” are 39.2 nM, 47.5 nM and 91.6 nM.
Turning to “AGCUAUUAAUCAGGAUAUGGUCACAUGAGGAUCACCCAUGUGUAGAUGAUAAAAUGUGGUCAAGACUAGAAGGGAUUGCUAACA [SameState NG2 #62] (Eterna round: R96, puzzle: Same State NG 2)”, the “apparent KD of MS2 coat protein” value runs as follows: (input ligand: FMN 200 uM) 125 nM; under setting [1], 49.3 nM; (input ligand: none) 95.9 nM.
On the same counts, the results for “GAGCCAGUCCGAGGAUAUUCGUAGUACCACAUGAGGAUCACCCAUGUGGGCUCAGAAGAGCCCUUGGAGAAGGCGGGCUGGCUC [SS-NG2-LRO20] (Eterna round: R96, puzzle: Same State NG 2)” are 9.67 nM, 5.99 nM and 12.4 nM.
“GCUAGGAAAUAAGCCAACAUGAGGAUCACCCAUGUAUGUUGGUAGGAUAUCGUAUGCAAAGCAUACGAGAAGGGCUAACCUAGC [Mat - Same State NG 3 - JL Mod - D71] (Eterna round: R96, puzzle: Same State NG 3)”: the “apparent KD of MS2 coat protein” value was found to be 69.5 nM (input ligand: FMN 200 uM), 62.8 nM under setting [1] and 76 nM (input ligand: none).
Regarding “GGUGCGAAUAAAGCCUACAUGAGGAUCACCCAUGUAUGUAGGCAGGAUAUCGUUUGCUUUGCAAACGAGAAGGGCUGUCGCACC [JL SSNG3 1.16] (Eterna round: R96, puzzle: Same State NG 3)”, the “apparent KD of MS2 coat protein” value amounted to 21.9 nM (input ligand: FMN 200 uM), 49 nM under setting [1] and 70.7 nM (input ligand: none).
For the sequence “CACGUCCAGGUAGGAUAUGAGGUGCCAUAGGGAACAGCCUAUGGACAUGAGGAUCACCCAUGUCCUCAGAAGGGCCAGACGUGA [Rasote] (Eterna round: R96, puzzle: Same State NG 2)”, the “apparent KD of MS2 coat protein” value (input ligand: FMN 200 uM) worked out at 25.7 nM, the “apparent KD of MS2 coat protein” value under setting [1] was determined as 116 nM and the “apparent KD of MS2 coat protein” value (input ligand: none) was found to be 171 nM.
Regarding “CGUCCAGCCUGAGCUGGACAAAAGCAUGUACAUGAGGAUCACCCAUGUUCAUGUACAAGCUUUUUGCUCGUCUUAUC [salish99_208a_r3_055] (puzzle: Sensor for hsa-mir-208a)”, the “apparent KD of MS2 coat protein” value is, setting by setting: under setting [2], 597 nM; under setting [3], 14.4 nM; under setting [4], 587 nM.
In the case of “AGGCUCAGACGAGGAUAUAUGUCUCGAGCUUCGGCUCGAGACAUGAGGAUCACCCAUGUAAUAACAUAGAAGGCGUCUGAGCCA [SSNG2/1-A1] (Eterna round: R96, puzzle: Same State NG 2)”, the “apparent KD of MS2 coat protein” value by setting is: (input ligand: FMN 200 uM) 15.7 nM; under setting [1], 24.9 nM; (input ligand: none) 37 nM.
For “GUAAAACAUGAGGAUCACCCAUGUAAUAAUAUGGGAGGAUAUCAGAUUUAAUUUAAUUUAUGAGAAGGCCUAAAUU [Mat - Same State 1 - Mod of Eli - D62] (puzzle: Same State 1)”, the “apparent KD of MS2 coat protein” value came out at 43.4 nM under setting [2], 488 nM under setting [3] and 596 nM under setting [4].
